According to article PMC6351178:

Biological target: PitA (E. coli (endogenous in MG1655)) (UniProt P0AFJ7)
Experiment: cross-linking

UniProt P0AFJ7, sequence (P0AFJ7 whole entry): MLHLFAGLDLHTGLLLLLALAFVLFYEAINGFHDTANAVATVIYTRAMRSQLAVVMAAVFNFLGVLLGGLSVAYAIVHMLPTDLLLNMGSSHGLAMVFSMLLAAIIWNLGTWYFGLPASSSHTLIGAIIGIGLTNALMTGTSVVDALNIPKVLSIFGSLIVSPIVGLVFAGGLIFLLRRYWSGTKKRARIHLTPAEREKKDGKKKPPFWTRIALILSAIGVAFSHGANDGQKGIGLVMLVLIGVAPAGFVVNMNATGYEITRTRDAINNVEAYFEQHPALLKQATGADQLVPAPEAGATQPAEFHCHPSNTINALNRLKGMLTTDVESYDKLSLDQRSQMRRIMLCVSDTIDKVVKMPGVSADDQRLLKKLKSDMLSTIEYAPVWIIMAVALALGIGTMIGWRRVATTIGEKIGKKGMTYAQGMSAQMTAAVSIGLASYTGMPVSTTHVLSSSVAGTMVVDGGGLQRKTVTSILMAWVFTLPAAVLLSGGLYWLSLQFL

- stoichiometry N (MgtS-SPA per PitA): 1
Substance: MgtS-SPA (from UniProt A5A616 1-31) (natural protein)
